Experimental data published in patent publication US20170101454A1 (Novo Nordisk, published 2017).
Starred links: 1 amine or outer side, 2 acyl side, 3 side chain; linkers in the order of their positions; H or OH if unused. Non-standard residues stand in square brackets, D forms with d. Groups on a side chain read outwards from the residue. No end group written: not given here. *: point of attachment. C18 diacid = O=C(O)CCCCCCCCCCCCCCCCC(=O)*; γGlu = O=C(O)[C@H](CCC(=O)[*:2])N[*:1]; Ac4c = NC1(C(=O)O)CCC1; AEEA = NCCOCCOCC(=O)O; Aib = CC(C)(N)C(=O)O

B1: N^ε24-[2-[2-[2-[[2-[2-[2-[[(4S)-4-carboxy-4-[[(4S)-4-carboxy-4-[[(4S)-4-carboxy-4-(17-carboxyheptadecanoylamino)butanoyl]amino]butanoyl]amino]butanoyl]amino]eth … (peptide)
peptide: H[Aib]QGTFTSDYSKYLDAKRAREFVK([AEEA-AEEA-γGlu-γGlu-γGlu-C18 diacid])WLIST-NH2
modifications: N-terminus assumed
SMILES: CC[C@H](C)[C@H](NC(=O)[C@H](CC(C)C)NC(=O)[C@H](Cc1c[nH]c2ccccc12)NC(=O)[C@H](CCCCNC(=O)COCCOCCNC(=O)COCCOCCNC(=O)CC[C@H](NC(=O)CC[C@H](NC(=O)CC[C@H](NC(=O)CCCCCCCCCCCCCCCCC(=O)O)C(=O)O)C(=O)O)C(=O)O)NC(=O)[C@@H](NC(=O)[C@H](Cc1ccccc1)NC(=O)[C@H](CCC(=O)O)NC(=O)[C@H](CCCNC(=N)N)NC(=O)[C@H](C)NC(=O)[C@H](CCCNC(=N)N)NC(=O)[C@H](CCCCN)NC(=O)[C@H](C)NC(=O)[C@H](CC(=O)O)NC(=O)[C@H](CC(C)C)NC(=O)[C@H](Cc1ccc(O)cc1)NC(=O)[C@H](CCCCN)NC(=O)[C@H](CO)NC(=O)[C@H](Cc1ccc(O)cc1)NC(=O)[C@H](CC(=O)O)NC(=O)[C@H](CO)NC(=O)[C@@H](NC(=O)[C@H](Cc1ccccc1)NC(=O)[C@@H](NC(=O)CNC(=O)[C@H](CCC(N)=O)NC(=O)C(C)(C)NC(=O)[C@@H](N)Cc1c[nH]cn1)[C@@H](C)O)[C@@H](C)O)C(C)C)C(=O)N[C@@H](CO)C(=O)N[C@H](C(N)=O)[C@@H](C)O
notes: also called Chem. 2; Chem 2
B2: N^ε28-[2-[2-[2-[[2-[2-[2-[[(4S)-4-carboxy-4-[[(4S)-4-carboxy-4-[[(4S)-4-carboxy-4-(17-carboxyheptadecanoylamino)butanoyl]amino]butanoyl]amino]butanoyl]amino]eth … (peptide)
peptide: H[Aib]QGTFTSDLSKYLESRRAQDFVQWLIK([AEEA-AEEA-γGlu-γGlu-γGlu-C18 diacid])T-NH2
modifications: N-terminus assumed
SMILES: CC[C@H](C)[C@H](NC(=O)[C@H](CC(C)C)NC(=O)[C@H](Cc1c[nH]c2ccccc12)NC(=O)[C@H](CCC(N)=O)NC(=O)[C@@H](NC(=O)[C@H](Cc1ccccc1)NC(=O)[C@H](CC(=O)O)NC(=O)[C@H](CCC(N)=O)NC(=O)[C@H](C)NC(=O)[C@H](CCCNC(=N)N)NC(=O)[C@H](CCCNC(=N)N)NC(=O)[C@H](CO)NC(=O)[C@H](CCC(=O)O)NC(=O)[C@H](CC(C)C)NC(=O)[C@H](Cc1ccc(O)cc1)NC(=O)[C@H](CCCCN)NC(=O)[C@H](CO)NC(=O)[C@H](CC(C)C)NC(=O)[C@H](CC(=O)O)NC(=O)[C@H](CO)NC(=O)[C@@H](NC(=O)[C@H](Cc1ccccc1)NC(=O)[C@@H](NC(=O)CNC(=O)[C@H](CCC(N)=O)NC(=O)C(C)(C)NC(=O)[C@@H](N)Cc1c[nH]cn1)[C@@H](C)O)[C@@H](C)O)C(C)C)C(=O)N[C@@H](CCCCNC(=O)COCCOCCNC(=O)COCCOCCNC(=O)CC[C@H](NC(=O)CC[C@H](NC(=O)CC[C@H](NC(=O)CCCCCCCCCCCCCCCCC(=O)O)C(=O)O)C(=O)O)C(=O)O)C(=O)N[C@H](C(N)=O)[C@@H](C)O
notes: also called Chem. 8; Chem 8
B3: N^ε28-[2-[2-[2-[[2-[2-[2-[[(4S)-4-carboxy-4-[[(4S)-4-carboxy-4-[[(4S)-4-carboxy-4-(17-carboxyheptadecanoylamino)butanoyl]amino]butanoyl]amino]butanoyl]amino]eth … (peptide)
peptide: H[Aib]QGTFTSDLSKYLDLRRAQDFVQWLIK([AEEA-AEEA-γGlu-γGlu-γGlu-C18 diacid])T-NH2
modifications: N-terminus assumed
SMILES: CC[C@H](C)[C@H](NC(=O)[C@H](CC(C)C)NC(=O)[C@H](Cc1c[nH]c2ccccc12)NC(=O)[C@H](CCC(N)=O)NC(=O)[C@@H](NC(=O)[C@H](Cc1ccccc1)NC(=O)[C@H](CC(=O)O)NC(=O)[C@H](CCC(N)=O)NC(=O)[C@H](C)NC(=O)[C@H](CCCNC(=N)N)NC(=O)[C@H](CCCNC(=N)N)NC(=O)[C@H](CC(C)C)NC(=O)[C@H](CC(=O)O)NC(=O)[C@H](CC(C)C)NC(=O)[C@H](Cc1ccc(O)cc1)NC(=O)[C@H](CCCCN)NC(=O)[C@H](CO)NC(=O)[C@H](CC(C)C)NC(=O)[C@H](CC(=O)O)NC(=O)[C@H](CO)NC(=O)[C@@H](NC(=O)[C@H](Cc1ccccc1)NC(=O)[C@@H](NC(=O)CNC(=O)[C@H](CCC(N)=O)NC(=O)C(C)(C)NC(=O)[C@@H](N)Cc1c[nH]cn1)[C@@H](C)O)[C@@H](C)O)C(C)C)C(=O)N[C@@H](CCCCNC(=O)COCCOCCNC(=O)COCCOCCNC(=O)CC[C@H](NC(=O)CC[C@H](NC(=O)CC[C@H](NC(=O)CCCCCCCCCCCCCCCCC(=O)O)C(=O)O)C(=O)O)C(=O)O)C(=O)N[C@H](C(N)=O)[C@@H](C)O
notes: also called Chem. 9; Chem 9
B4: N^ε28-[2-[2-[2-[[2-[2-[2-[[(4S)-4-carboxy-4-[[(4S)-4-carboxy-4-[[(4S)-4-carboxy-4-(17-carboxyheptadecanoylamino)butanoyl]amino]butanoyl]amino]butanoyl]amino]eth … (peptide)
peptide: H[Aib]QGTFTSDLSKYLDARRAREFVQWLIK([AEEA-AEEA-γGlu-γGlu-γGlu-C18 diacid])T-NH2
modifications: N-terminus assumed
SMILES: CC[C@H](C)[C@H](NC(=O)[C@H](CC(C)C)NC(=O)[C@H](Cc1c[nH]c2ccccc12)NC(=O)[C@H](CCC(N)=O)NC(=O)[C@@H](NC(=O)[C@H](Cc1ccccc1)NC(=O)[C@H](CCC(=O)O)NC(=O)[C@H](CCCNC(=N)N)NC(=O)[C@H](C)NC(=O)[C@H](CCCNC(=N)N)NC(=O)[C@H](CCCNC(=N)N)NC(=O)[C@H](C)NC(=O)[C@H](CC(=O)O)NC(=O)[C@H](CC(C)C)NC(=O)[C@H](Cc1ccc(O)cc1)NC(=O)[C@H](CCCCN)NC(=O)[C@H](CO)NC(=O)[C@H](CC(C)C)NC(=O)[C@H](CC(=O)O)NC(=O)[C@H](CO)NC(=O)[C@@H](NC(=O)[C@H](Cc1ccccc1)NC(=O)[C@@H](NC(=O)CNC(=O)[C@H](CCC(N)=O)NC(=O)C(C)(C)NC(=O)[C@@H](N)Cc1c[nH]cn1)[C@@H](C)O)[C@@H](C)O)C(C)C)C(=O)N[C@@H](CCCCNC(=O)COCCOCCNC(=O)COCCOCCNC(=O)CC[C@H](NC(=O)CC[C@H](NC(=O)CC[C@H](NC(=O)CCCCCCCCCCCCCCCCC(=O)O)C(=O)O)C(=O)O)C(=O)O)C(=O)N[C@H](C(N)=O)[C@@H](C)O
notes: also called Chem. 6; Chem 6
B5: N^ε24-[2-[2-[2-[[2-[2-[2-[[(4S)-4-carboxy-4-[[(4S)-4-carboxy-4-[[(4S)-4-carboxy-4-(17-carboxyheptadecanoylamino)butanoyl]amino]butanoyl]amino]butanoyl]amino]eth … (peptide)
peptide: H[Aib]QGTFTSDYSKYLDARRAREFVK([AEEA-AEEA-γGlu-γGlu-γGlu-C18 diacid])WLIST-NH2
modifications: N-terminus assumed
SMILES: CC[C@H](C)[C@H](NC(=O)[C@H](CC(C)C)NC(=O)[C@H](Cc1c[nH]c2ccccc12)NC(=O)[C@H](CCCCNC(=O)COCCOCCNC(=O)COCCOCCNC(=O)CC[C@H](NC(=O)CC[C@H](NC(=O)CC[C@H](NC(=O)CCCCCCCCCCCCCCCCC(=O)O)C(=O)O)C(=O)O)C(=O)O)NC(=O)[C@@H](NC(=O)[C@H](Cc1ccccc1)NC(=O)[C@H](CCC(=O)O)NC(=O)[C@H](CCCNC(=N)N)NC(=O)[C@H](C)NC(=O)[C@H](CCCNC(=N)N)NC(=O)[C@H](CCCNC(=N)N)NC(=O)[C@H](C)NC(=O)[C@H](CC(=O)O)NC(=O)[C@H](CC(C)C)NC(=O)[C@H](Cc1ccc(O)cc1)NC(=O)[C@H](CCCCN)NC(=O)[C@H](CO)NC(=O)[C@H](Cc1ccc(O)cc1)NC(=O)[C@H](CC(=O)O)NC(=O)[C@H](CO)NC(=O)[C@@H](NC(=O)[C@H](Cc1ccccc1)NC(=O)[C@@H](NC(=O)CNC(=O)[C@H](CCC(N)=O)NC(=O)C(C)(C)NC(=O)[C@@H](N)Cc1c[nH]cn1)[C@@H](C)O)[C@@H](C)O)C(C)C)C(=O)N[C@@H](CO)C(=O)N[C@H](C(N)=O)[C@@H](C)O
notes: also called Chem. 4; Chem 4
B6: N^ε28-[2-[2-[2-[[2-[2-[2-[[(4S)-4-carboxy-4-[[(4S)-4-carboxy-4-[[(4S)-4-carboxy-4-(17-carboxyheptadecanoylamino)butanoyl]amino]butanoyl]amino]butanoyl]amino]eth … (peptide)
peptide: H[Aib]QGTFTSDLSKYLDARRAQDFVQWLIK([AEEA-AEEA-γGlu-γGlu-γGlu-C18 diacid])T-NH2
modifications: N-terminus assumed
SMILES: CC[C@H](C)[C@H](NC(=O)[C@H](CC(C)C)NC(=O)[C@H](Cc1c[nH]c2ccccc12)NC(=O)[C@H](CCC(N)=O)NC(=O)[C@@H](NC(=O)[C@H](Cc1ccccc1)NC(=O)[C@H](CC(=O)O)NC(=O)[C@H](CCC(N)=O)NC(=O)[C@H](C)NC(=O)[C@H](CCCNC(=N)N)NC(=O)[C@H](CCCNC(=N)N)NC(=O)[C@H](C)NC(=O)[C@H](CC(=O)O)NC(=O)[C@H](CC(C)C)NC(=O)[C@H](Cc1ccc(O)cc1)NC(=O)[C@H](CCCCN)NC(=O)[C@H](CO)NC(=O)[C@H](CC(C)C)NC(=O)[C@H](CC(=O)O)NC(=O)[C@H](CO)NC(=O)[C@@H](NC(=O)[C@H](Cc1ccccc1)NC(=O)[C@@H](NC(=O)CNC(=O)[C@H](CCC(N)=O)NC(=O)C(C)(C)NC(=O)[C@@H](N)Cc1c[nH]cn1)[C@@H](C)O)[C@@H](C)O)C(C)C)C(=O)N[C@@H](CCCCNC(=O)COCCOCCNC(=O)COCCOCCNC(=O)CC[C@H](NC(=O)CC[C@H](NC(=O)CC[C@H](NC(=O)CCCCCCCCCCCCCCCCC(=O)O)C(=O)O)C(=O)O)C(=O)O)C(=O)N[C@H](C(N)=O)[C@@H](C)O
notes: also called Chem. 7; Chem 7

Target: T1, human glucagon receptor (human, UniProt P47871 26-477)
T1 construct: whole, on cells; reporter assay used whole cells; also called hGCGR
Experiment: displacement of [125I]-glucagon from BHK membranes with human glucagon receptor, SPA, no serum albumin

T1 sequence (P47871 26-477): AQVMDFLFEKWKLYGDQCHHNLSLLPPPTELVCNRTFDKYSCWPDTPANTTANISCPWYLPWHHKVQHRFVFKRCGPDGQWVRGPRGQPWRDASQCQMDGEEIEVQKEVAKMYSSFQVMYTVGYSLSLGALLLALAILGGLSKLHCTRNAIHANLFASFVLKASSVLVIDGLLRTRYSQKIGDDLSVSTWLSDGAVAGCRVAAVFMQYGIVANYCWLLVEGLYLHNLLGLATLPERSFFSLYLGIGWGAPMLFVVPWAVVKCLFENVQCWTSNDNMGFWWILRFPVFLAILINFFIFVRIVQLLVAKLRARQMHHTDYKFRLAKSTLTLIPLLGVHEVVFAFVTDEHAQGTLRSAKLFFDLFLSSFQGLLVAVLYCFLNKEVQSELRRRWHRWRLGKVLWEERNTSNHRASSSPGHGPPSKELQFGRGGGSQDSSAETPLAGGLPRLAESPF

IC50 [nM]	Binder
7.5	B1
27.6	B2
11.1	H[Ac4c]QGTFTSDLSKYLESRRAREFVQWLIK([AEEA-AEEA-γGlu-γGlu-C18 diacid])T-NH2 (also called Chem. 18; Chem 18)
17.3	B3
3.7	B4
3.9	B5
6	B6

Target: T2, human GLP-1 receptor (human, UniProt P43220 24-463)
Experiment: cell-based or functional assay

GLP-1R EC50 (pM) [Assay (I)(a)], CRE luciferase reporter, BHK cells [pM]	Binder
2	B1
7	B2
4	H[Ac4c]QGTFTSDLSKYLESRRAREFVQWLIK([AEEA-AEEA-γGlu-γGlu-C18 diacid])T-NH2 (also called Chem. 18; Chem 18)
10	B3
5	B4
3	B5
2	B6

Target: T1, human glucagon receptor
Experiment: cell-based or functional assay

GlucagonR EC50 (pM), [Assay (I)(b)], CRE luciferase reporter, BHK cells [pM]	Binder
10	B1
517	B2
32	H[Ac4c]QGTFTSDLSKYLESRRAREFVQWLIK([AEEA-AEEA-γGlu-γGlu-C18 diacid])T-NH2 (also called Chem. 18; Chem 18)
44	B3
14	B4
12	B5
32	B6

Target: T2, human GLP-1 receptor
Experiment: displacement of [125I]-GLP-1-(7-36)NH2 from BHK membranes with human GLP-1R, SPA, no serum albumin

IC50 [nM]	Binder
0.3	B1
0.1	B2
0.1	H[Ac4c]QGTFTSDLSKYLESRRAREFVQWLIK([AEEA-AEEA-γGlu-γGlu-C18 diacid])T-NH2 (also called Chem. 18; Chem 18)
0.5	B3
0.1	B4
0.1	B5
0.3	B6
